The values that follow come from patent US20250304712A1 (published 2025).

This assay addresses T1, recombinant LY6K protein with histidine and Strep tags (human, UniProt Q17RY6 18-138).
T1 chain: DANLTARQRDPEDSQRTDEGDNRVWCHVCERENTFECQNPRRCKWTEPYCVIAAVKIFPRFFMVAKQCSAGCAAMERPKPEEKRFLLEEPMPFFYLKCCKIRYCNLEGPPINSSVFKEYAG
Description: QCM.

B1: murine anti-LY6K antibody G57 (antibody, V domains shown)
VH: EVQLVESGGDLVKPGGSLKLSCAASGFTFNSYGMSWVRQTPDKRLEWVATISSGGTYTYYSDSVKGRFTISRDNAKNILYLHMSSLKSEDTAMYYCARHDWDFFDYWGQGTTLTVSS
VL: DVVMTQTPLSLPVSLGDQASISCRSSQSLVHTDGDTYLNWYLQKPGQSPKLLIYKVSNRFSGVPDRFSGSGSGTDFTLKIRRVEAEDLGVYFCSQNTHVYTFGGGTKLE
What is called Kd is a measure of binding affinity in units of concentration. For the molecule B1, the Kd was 1340 pM.

B2: murine anti-LY6K antibody 22C-G8 (antibody, V domains shown)
VH: QVQLQQPGAELAKPGASVKLSCKTSGYTFTSYWMHWVKQRPGQGFEWIGEINPSNGGANYNEKFKRKATLTVDKSSSTAYMQLRSLTSEDSAVYYCTMGGNFFFAYWGQGTSVTVSS
VL: not shown
B2: the Kd turned out to be 243 pM.

B3: murine anti-LY6K antibody 28C1 (antibody, V domains shown)
VH: QIQLVQSGPELKKPGETVKISCKTSGYTFTNFAMNWVKQTPGKGLRYMGWINTNTGEPTYVEEFKGRFAFSLETSASTAYLQISNLKNEDTATYFCTREWRRSYYFDYWGQGTSLTVSS
VL: DIQMTQTPLSLPVSLGDQASISCRSSQTILHSNGNTYLEWYLQKPGQSLKLLIYKVSNRLSGVPDRFSGSGSGTDFTLKISRVEAEDLGVYYCFQGSHDPFTFGSGTKLE
On to B3, for which the Kd was determined as 612 pM.
